The results in this text go back to patent US20140206609A1 (Sanofi, published 2014).

First the molecules themselves.
T1: human GIP receptor (human, UniProt P48546 22-466)
T1 sequence (looked up): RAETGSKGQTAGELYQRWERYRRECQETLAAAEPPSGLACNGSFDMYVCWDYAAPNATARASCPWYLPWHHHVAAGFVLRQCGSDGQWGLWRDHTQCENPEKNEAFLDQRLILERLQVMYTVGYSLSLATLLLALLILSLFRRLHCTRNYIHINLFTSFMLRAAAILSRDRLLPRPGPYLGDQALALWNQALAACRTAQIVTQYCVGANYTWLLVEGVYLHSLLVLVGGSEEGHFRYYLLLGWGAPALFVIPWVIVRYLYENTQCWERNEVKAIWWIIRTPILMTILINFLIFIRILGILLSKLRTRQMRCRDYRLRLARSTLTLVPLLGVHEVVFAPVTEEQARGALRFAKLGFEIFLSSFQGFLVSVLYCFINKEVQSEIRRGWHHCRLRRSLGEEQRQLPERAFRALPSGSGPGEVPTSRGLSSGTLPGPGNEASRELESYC

B1: SEQ ID NO: 12 (peptide)
peptide: Y[Aib]EGTFTSDLSIQK([γGlu-Palmitoyl])DKRAAQDFIEWLKNGGPSSGAPPPS-NH2
modifications: N-terminus assumed
SMILES: CCCCCCCCCCCCCCCC(=O)N[C@@H](CCC(=O)NCCCC[C@H](NC(=O)[C@H](CCC(N)=O)NC(=O)[C@@H](NC(=O)[C@H](CO)NC(=O)[C@H](CC(C)C)NC(=O)[C@H](CC(=O)O)NC(=O)[C@H](CO)NC(=O)[C@@H](NC(=O)[C@H](Cc1ccccc1)NC(=O)[C@@H](NC(=O)CNC(=O)[C@H](CCC(=O)O)NC(=O)C(C)(C)NC(=O)[C@@H](N)Cc1ccc(O)cc1)[C@@H](C)O)[C@@H](C)O)[C@@H](C)CC)C(=O)N[C@@H](CC(=O)O)C(=O)N[C@@H](CCCCN)C(=O)N[C@@H](CCCNC(=N)N)C(=O)N[C@@H](C)C(=O)N[C@@H](C)C(=O)N[C@@H](CCC(N)=O)C(=O)N[C@@H](CC(=O)O)C(=O)N[C@@H](Cc1ccccc1)C(=O)N[C@H](C(=O)N[C@@H](CCC(=O)O)C(=O)N[C@@H](Cc1c[nH]c2ccccc12)C(=O)N[C@@H](CC(C)C)C(=O)N[C@@H](CCCCN)C(=O)N[C@@H](CC(N)=O)C(=O)NCC(=O)NCC(=O)N1CCC[C@H]1C(=O)N[C@@H](CO)C(=O)N[C@@H](CO)C(=O)NCC(=O)N[C@@H](C)C(=O)N1CCC[C@H]1C(=O)N1CCC[C@H]1C(=O)N1CCC[C@H]1C(=O)N[C@@H](CO)C(N)=O)[C@@H](C)CC)C(=O)O
B2: SEQ ID NO: 17 (peptide)
peptide: Y[Aib]EGTFTSDLSIQK([GABA-Stearoyl])EKRAA[Aib]EFIEWLKNTGPSSGAPPPS-NH2
modifications: N-terminus assumed
SMILES: CCCCCCCCCCCCCCCCCC(=O)NCCCC(=O)NCCCC[C@H](NC(=O)[C@H](CCC(N)=O)NC(=O)[C@@H](NC(=O)[C@H](CO)NC(=O)[C@H](CC(C)C)NC(=O)[C@H](CC(=O)O)NC(=O)[C@H](CO)NC(=O)[C@@H](NC(=O)[C@H](Cc1ccccc1)NC(=O)[C@@H](NC(=O)CNC(=O)[C@H](CCC(=O)O)NC(=O)C(C)(C)NC(=O)[C@@H](N)Cc1ccc(O)cc1)[C@@H](C)O)[C@@H](C)O)[C@@H](C)CC)C(=O)N[C@@H](CCC(=O)O)C(=O)N[C@@H](CCCCN)C(=O)N[C@@H](CCCNC(=N)N)C(=O)N[C@@H](C)C(=O)N[C@@H](C)C(=O)NC(C)(C)C(=O)N[C@@H](CCC(=O)O)C(=O)N[C@@H](Cc1ccccc1)C(=O)N[C@H](C(=O)N[C@@H](CCC(=O)O)C(=O)N[C@@H](Cc1c[nH]c2ccccc12)C(=O)N[C@@H](CC(C)C)C(=O)N[C@@H](CCCCN)C(=O)N[C@@H](CC(N)=O)C(=O)N[C@H](C(=O)NCC(=O)N1CCC[C@H]1C(=O)N[C@@H](CO)C(=O)N[C@@H](CO)C(=O)NCC(=O)N[C@@H](C)C(=O)N1CCC[C@H]1C(=O)N1CCC[C@H]1C(=O)N1CCC[C@H]1C(=O)N[C@@H](CO)C(N)=O)[C@@H](C)O)[C@@H](C)CC
B3: SEQ ID NO: 11 (peptide)
peptide: Y[Aib]EGTFTSDLSIQK([γGlu-Palmitoyl])DKRAA[Aib]DFIEWLKAGGPSSGAPPPS-NH2
modifications: N-terminus assumed
SMILES: CCCCCCCCCCCCCCCC(=O)N[C@@H](CCC(=O)NCCCC[C@H](NC(=O)[C@H](CCC(N)=O)NC(=O)[C@@H](NC(=O)[C@H](CO)NC(=O)[C@H](CC(C)C)NC(=O)[C@H](CC(=O)O)NC(=O)[C@H](CO)NC(=O)[C@@H](NC(=O)[C@H](Cc1ccccc1)NC(=O)[C@@H](NC(=O)CNC(=O)[C@H](CCC(=O)O)NC(=O)C(C)(C)NC(=O)[C@@H](N)Cc1ccc(O)cc1)[C@@H](C)O)[C@@H](C)O)[C@@H](C)CC)C(=O)N[C@@H](CC(=O)O)C(=O)N[C@@H](CCCCN)C(=O)N[C@@H](CCCNC(=N)N)C(=O)N[C@@H](C)C(=O)N[C@@H](C)C(=O)NC(C)(C)C(=O)N[C@@H](CC(=O)O)C(=O)N[C@@H](Cc1ccccc1)C(=O)N[C@H](C(=O)N[C@@H](CCC(=O)O)C(=O)N[C@@H](Cc1c[nH]c2ccccc12)C(=O)N[C@@H](CC(C)C)C(=O)N[C@@H](CCCCN)C(=O)N[C@@H](C)C(=O)NCC(=O)NCC(=O)N1CCC[C@H]1C(=O)N[C@@H](CO)C(=O)N[C@@H](CO)C(=O)NCC(=O)N[C@@H](C)C(=O)N1CCC[C@H]1C(=O)N1CCC[C@H]1C(=O)N1CCC[C@H]1C(=O)N[C@@H](CO)C(N)=O)[C@@H](C)CC)C(=O)O
B4: SEQ ID NO: 14 (peptide)
peptide: Y[Aib]EGTFTSDLSIQK([γGlu-Stearoyl])EKRAAQEFIEWLKAGGPSSGAPPPS-NH2
modifications: N-terminus assumed
SMILES: CCCCCCCCCCCCCCCCCC(=O)N[C@@H](CCC(=O)NCCCC[C@H](NC(=O)[C@H](CCC(N)=O)NC(=O)[C@@H](NC(=O)[C@H](CO)NC(=O)[C@H](CC(C)C)NC(=O)[C@H](CC(=O)O)NC(=O)[C@H](CO)NC(=O)[C@@H](NC(=O)[C@H](Cc1ccccc1)NC(=O)[C@@H](NC(=O)CNC(=O)[C@H](CCC(=O)O)NC(=O)C(C)(C)NC(=O)[C@@H](N)Cc1ccc(O)cc1)[C@@H](C)O)[C@@H](C)O)[C@@H](C)CC)C(=O)N[C@@H](CCC(=O)O)C(=O)N[C@@H](CCCCN)C(=O)N[C@@H](CCCNC(=N)N)C(=O)N[C@@H](C)C(=O)N[C@@H](C)C(=O)N[C@@H](CCC(N)=O)C(=O)N[C@@H](CCC(=O)O)C(=O)N[C@@H](Cc1ccccc1)C(=O)N[C@H](C(=O)N[C@@H](CCC(=O)O)C(=O)N[C@@H](Cc1c[nH]c2ccccc12)C(=O)N[C@@H](CC(C)C)C(=O)N[C@@H](CCCCN)C(=O)N[C@@H](C)C(=O)NCC(=O)NCC(=O)N1CCC[C@H]1C(=O)N[C@@H](CO)C(=O)N[C@@H](CO)C(=O)NCC(=O)N[C@@H](C)C(=O)N1CCC[C@H]1C(=O)N1CCC[C@H]1C(=O)N1CCC[C@H]1C(=O)N[C@@H](CO)C(N)=O)[C@@H](C)CC)C(=O)O
B5: SEQ ID NO: 16 (peptide)
peptide: Y[Aib]EGTFTSDLSIQK([γGlu-γGlu-Stearoyl])EKRAA[Aib]EFIEWLKNTGPSSGAPPPS-NH2
modifications: N-terminus assumed
SMILES: CCCCCCCCCCCCCCCCCC(=O)N[C@@H](CCC(=O)N[C@@H](CCC(=O)NCCCC[C@H](NC(=O)[C@H](CCC(N)=O)NC(=O)[C@@H](NC(=O)[C@H](CO)NC(=O)[C@H](CC(C)C)NC(=O)[C@H](CC(=O)O)NC(=O)[C@H](CO)NC(=O)[C@@H](NC(=O)[C@H](Cc1ccccc1)NC(=O)[C@@H](NC(=O)CNC(=O)[C@H](CCC(=O)O)NC(=O)C(C)(C)NC(=O)[C@@H](N)Cc1ccc(O)cc1)[C@@H](C)O)[C@@H](C)O)[C@@H](C)CC)C(=O)N[C@@H](CCC(=O)O)C(=O)N[C@@H](CCCCN)C(=O)N[C@@H](CCCNC(=N)N)C(=O)N[C@@H](C)C(=O)N[C@@H](C)C(=O)NC(C)(C)C(=O)N[C@@H](CCC(=O)O)C(=O)N[C@@H](Cc1ccccc1)C(=O)N[C@H](C(=O)N[C@@H](CCC(=O)O)C(=O)N[C@@H](Cc1c[nH]c2ccccc12)C(=O)N[C@@H](CC(C)C)C(=O)N[C@@H](CCCCN)C(=O)N[C@@H](CC(N)=O)C(=O)N[C@H](C(=O)NCC(=O)N1CCC[C@H]1C(=O)N[C@@H](CO)C(=O)N[C@@H](CO)C(=O)NCC(=O)N[C@@H](C)C(=O)N1CCC[C@H]1C(=O)N1CCC[C@H]1C(=O)N1CCC[C@H]1C(=O)N[C@@H](CO)C(N)=O)[C@@H](C)O)[C@@H](C)CC)C(=O)O)C(=O)O
B6: SEQ ID NO: 13 (peptide)
peptide: Y[Aib]QGTFTSDLSIQK([γGlu-Palmitoyl])DSRAAQDFIEWLKNGGPSSGAPPPS-NH2
modifications: N-terminus assumed
SMILES: CCCCCCCCCCCCCCCC(=O)N[C@@H](CCC(=O)NCCCC[C@H](NC(=O)[C@H](CCC(N)=O)NC(=O)[C@@H](NC(=O)[C@H](CO)NC(=O)[C@H](CC(C)C)NC(=O)[C@H](CC(=O)O)NC(=O)[C@H](CO)NC(=O)[C@@H](NC(=O)[C@H](Cc1ccccc1)NC(=O)[C@@H](NC(=O)CNC(=O)[C@H](CCC(N)=O)NC(=O)C(C)(C)NC(=O)[C@@H](N)Cc1ccc(O)cc1)[C@@H](C)O)[C@@H](C)O)[C@@H](C)CC)C(=O)N[C@@H](CC(=O)O)C(=O)N[C@@H](CO)C(=O)N[C@@H](CCCNC(=N)N)C(=O)N[C@@H](C)C(=O)N[C@@H](C)C(=O)N[C@@H](CCC(N)=O)C(=O)N[C@@H](CC(=O)O)C(=O)N[C@@H](Cc1ccccc1)C(=O)N[C@H](C(=O)N[C@@H](CCC(=O)O)C(=O)N[C@@H](Cc1c[nH]c2ccccc12)C(=O)N[C@@H](CC(C)C)C(=O)N[C@@H](CCCCN)C(=O)N[C@@H](CC(N)=O)C(=O)NCC(=O)NCC(=O)N1CCC[C@H]1C(=O)N[C@@H](CO)C(=O)N[C@@H](CO)C(=O)NCC(=O)N[C@@H](C)C(=O)N1CCC[C@H]1C(=O)N1CCC[C@H]1C(=O)N1CCC[C@H]1C(=O)N[C@@H](CO)C(N)=O)[C@@H](C)CC)C(=O)O

*1 amine or outer side, *2 acyl side, *3 side chain or, on linkers, in order; H or OH if unused. Where no end group is shown, it is not given here. Side-chain parts run from the residue outwards. [ ]: non-standard residue; d: D form. The star is where a group is joined. γGlu = O=C(O)[C@H](CCC(=O)[*:2])N[*:1]; Stearoyl = CCCCCCCCCCCCCCCCCC(=O)*; Palmitoyl = CCCCCCCCCCCCCCCC(=O)*; Aib = CC(C)(N)C(=O)O; GABA = NCCCC(=O)O

The target of the first assay is human GLP-1 receptor (human, UniProt P43220 24-463). Nature of the assay: cell-based or functional assay.
Turning to B1, the “EC50 hGLP-1 R [pM]” value is 12.7 pM.
B2: the “EC50 hGLP-1 R [pM]” value is 8.7 pM.
Regarding B3, the “EC50 hGLP-1 R [pM]” value is 11.5 pM.
The same measure, in the same setting: the value for B4 was 4.3 pM; that for B5 was 4 pM.
The same measure, in the same setting: the value for B6 was 7.3 pM.

The next assay has as its target T1, human GIP receptor. Nature of the assay: cell-based or functional assay.
Turning to B1, the “EC50 hGIP R [pM]” value is 8.9 pM.
The same measure, in the same setting: under B2 stands 9.6 pM.
Same read-out and setting: the value for B3 was 3.2 pM; that for B4 was 4.4 pM.
The same measure, in the same setting: the value for B5 was 5.1 pM; that for B6 was 71 pM.

For the next assay, the target named is human glucagon receptor (human, UniProt P47871 26-477). The experiment in a line: cell-based or functional assay.
Chain of human glucagon receptor (P47871 26-477): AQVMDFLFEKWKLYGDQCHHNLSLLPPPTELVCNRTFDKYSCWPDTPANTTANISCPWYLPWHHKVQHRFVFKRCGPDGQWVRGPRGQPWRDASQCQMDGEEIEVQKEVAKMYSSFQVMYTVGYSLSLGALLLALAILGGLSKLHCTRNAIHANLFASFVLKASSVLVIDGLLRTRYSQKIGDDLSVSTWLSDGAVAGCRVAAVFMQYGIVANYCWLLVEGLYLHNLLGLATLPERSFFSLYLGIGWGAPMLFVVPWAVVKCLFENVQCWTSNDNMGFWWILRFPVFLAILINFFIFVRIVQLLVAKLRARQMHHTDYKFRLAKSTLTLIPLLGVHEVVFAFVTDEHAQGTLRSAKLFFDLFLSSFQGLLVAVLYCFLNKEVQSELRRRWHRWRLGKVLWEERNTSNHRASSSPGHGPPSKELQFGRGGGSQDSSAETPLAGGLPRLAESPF
On to B1, for which the “EC50 hGLUC R [pM]” value was determined as 1890 pM.
On the same count and under the same terms, under B2 stands 9740 pM; under B3, 7220 pM.
Still for that read-out and setting: the value for B4 was 3760 pM; that for B5 was 2890 pM; that for B6 was 31.3 pM.
